“Also recorded” adds a separate entry of the source.

What is called Kd is the free concentration of one partner at which half of the binding sites on the other are occupied at equilibrium, for simple one-to-one binding. A higher Kd goes with a looser complex. One may read the EC50 as the midpoint of the concentration-response curve. Read a high EC50 as lower potency in that assay.

The target of one assay is IgCD95L (UniProt P48023). The assay is described as follows: SPR. On the technique in general: In SPR one partner is held on a chip, and binding of the other changes the refractive index at the surface.
A further assay has as its target CD95L (UniProt P48023). The assay is described as follows: flow cytometry (1A12 cells). In general terms: A flow cytometer gives signals particle by particle.
Assay [1] has as its target T1, human CD95L expressed on cells (human, UniProt P48023 1-281).
T1 construct: also called FasL; FASL
T1 sequence: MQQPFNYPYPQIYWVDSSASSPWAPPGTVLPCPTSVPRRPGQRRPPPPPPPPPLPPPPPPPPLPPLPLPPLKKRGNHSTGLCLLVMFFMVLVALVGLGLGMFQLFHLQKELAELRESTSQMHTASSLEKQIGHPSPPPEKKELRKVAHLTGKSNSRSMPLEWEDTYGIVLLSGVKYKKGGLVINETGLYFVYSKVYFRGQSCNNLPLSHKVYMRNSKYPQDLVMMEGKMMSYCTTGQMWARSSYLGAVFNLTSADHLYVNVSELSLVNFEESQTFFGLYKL
The assay is described as follows: flow cytometry on HEK/293T cells transiently transfected with CD95L, antibody at 1 µg/ml. On the procedure: (§1) FIG. 1. JQ3 recognizes human and simian CD95L and is a stronger neutralizing anti-CD95L mAb as compared to the commercial anti-CD95L antibody NOK-1. A. Kon, Koff and Kd of JQ3 (IgG1κ) and NOK-1 (IgG1κ) hybridoma measured by surface plasmon resonance. IgCD95L was immobilized on a sensor chip S CM5 and antibody binding features was evaluated using a Biacore T200. B. The ability of the anti-human CD95L monoclonal antibodies NOK-1 and JQ3 and anti-mouse CD95L monoclonal antibody MFL3 (1 μg/ml) to recognize human, simian or mouse CD95L was determined by flow cytometry using HEK/293T cells transiently transfected with indicated CD95L-encoding pcDNA3.1 vectors. C. The binding efficiency of NOK-1 and JQ3 was compared by flow cytometry against CD95L-expressing 1A12 cell line. Left panel: Histograms report the intensity of CD95L staining (CD95L mean of fluorescence—isotypic mean of fluorescence) according to the antibody concentration (M). Right panels: examples of CD95L staining, in red the JQ3 or NOK-1 staining and in grey the isotypic staining. Table indicates the half maximal effective concentration (EC50) for each antibody. D. The neutralizing ability of NOK1 and JQ3 mAbs was compared by incubating CD95-sensitive Jurkat cell line (5.10⁵ cells) for 24 hours with 100 ng/ml of Ig-CD95L (soluble and cytotoxic human CD95L) in the presence or absence of the indicated concentrations of antibody.

Assay [2] concerns the target T2, Ig-CD95L (soluble and cytotoxic human CD95L) (UniProt P48023 103-281).
T2 chain: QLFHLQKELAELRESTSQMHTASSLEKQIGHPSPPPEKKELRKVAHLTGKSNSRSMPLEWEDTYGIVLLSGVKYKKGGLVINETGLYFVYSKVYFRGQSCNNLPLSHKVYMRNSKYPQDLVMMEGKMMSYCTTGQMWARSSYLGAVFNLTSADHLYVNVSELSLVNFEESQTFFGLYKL
The assay is described as follows: SPR.

Assay [3] deals with T3, human CD95L expressed on cells (UniProt P48023 1-281).
T3 chain: T1 sequence
The assay is described as follows: flow cytometry (1A12 cells).

The subject of assay [4] is Ig-CD95L (soluble and cytotoxic human CD95L). In words: Neutralization of Ig-CD95L-induced cell death in Jurkat T-cells (MTT assay). Type of assay: cell-based. The note with it: 24 hours, 100 ng/ml Ig-CD95L, compared with NOK-1. As for the experimental part: as §1, with “JQ3 recognizes human and simian CD95L and is a stronger neutralizing anti-CD95L mAb as compared to the commercial anti-CD95L antibody NOK-1.” left out, “D. The neutralizing ability of NOK1 and JQ3 mAbs was compared by incubating CD95-sensitive Jurkat cell line (5.10⁵ cells) for 24 hours with 100 ng/ml of Ig-CD95L (soluble and cytotoxic human CD95L) in the presence or absence of the indicated concentrations of antibody.” left out
Cell viability was assessed using MTT (3-(4,5-dimethylthiazol-2-yl)-2,5-diphenyltetrazolium bromide) assay as previously described (48). […] Then, MTT (15 μl at 5 mg/mL in PBS) was added, and after 4 h of incubation at 37° C., the absorbance was measured at 570 nm wavelength using the Infinite200Pro (Tecan, Männedorf, Switzerland).
In general terms: Formazan colour is commonly taken as a measure of viable cells.

The next assay concerns simian CD95L. In words: Flow cytometry recognition of CD95L on transiently transfected HEK/293T cells. Format: cell-based. The conditions noted are these: antibody 1 μg/ml, HEK/293T cells transfected with CD95L-encoding pcDNA3.1 vector. On the procedure: as §1, with “JQ3 recognizes human and simian CD95L and is a stronger neutralizing anti-CD95L mAb as compared to the commercial anti-CD95L antibody NOK-1.” left out, “(5.10^5” for “(5.10⁵”

In another assay the target is T4, human CD95L (Homo sapiens, UniProt P48023).
T4 construct: expressed in transfected cells; host or cells: HEK/293T
T4 sequence (P48023 1-281): T1 sequence
The description is as above. The note with it: antibody 1 μg/ml, HEK/293T cells transfected with CD95L-encoding pcDNA3.1 vector. Format: cell-based. As for the experimental part: as §1, with “JQ3 recognizes human and simian CD95L and is a stronger neutralizing anti-CD95L mAb as compared to the commercial anti-CD95L antibody NOK-1.” left out, “(5.10^5” for “(5.10⁵”

For assay [5], the system named is CD95-mediated Ca^2+ response in neutrophils. The assay is described as follows: Calcium response (Cal-520 imaging) of healthy donor neutrophils stimulated with patient sera. Type of assay: cell-based, human. The note with it: sera from AAV or COVID-19 patients pre-incubated 30 min with antibody 10 μg/mL.

NOK1 registered a Kd in the assay with IgCD95L of 5.3 nM.
With NOK-1, in the assay with CD95L, the EC50 is 353 µM.

B1: JQ3 neutralizing anti-CD95L monoclonal antibody (IgG1κ) (antibody, V domains shown)
VH: EIQLQQTGPELVKPGASVKISCKASGFSFTDYIMVWVKQSHGKILEWIGDISPYYGTATYNLKFKGKATLTVVKSSSTAYMQLNSLTSEDSAVYYCARAPNRYEVMDYWGQGTSVTVSS
VL: QIVFTQSPAIMSAFLGEEITLTCSASSSVSYMHWYQQKSGTSPKLLIYNTFNLASGVPSRFSGSGSGTFYSLTISSVEAEDAADYYCHQWSSYPTFGGGTKLEIK
notes: Mouse (Balb/c) hybridoma antibody, IgG1 kappa, purified on protein A; also called JQ3 mAb
Regarding B1, the binding result in assay [1] is recorded as “binds”. Further, binding in assay [2] was put at a Kd of 2.2 nM. Moreover, a half-maximal response in [3] (EC50) required 5.53 nM.

B2: JQ3: neutralizing anti-CD95L monoclonal antibody (IgG1κ), mouse hybridoma; VL and VH domains given as sequences (antibody, V domains shown)
VH: B1 VH
VL: B1 VL
On to B2, for which, in assay [4], the “neutralizing ability (inhibition of CD95-mediated apoptotic signaling pathway)” value is on record as “stronger neutralizing anti-CD95L mAb as compared to the commercial anti-CD95L antibody NOK-1; also recorded: inhibited the CD95-mediated apoptotic signaling pathway induced in T-cell line Jurkat more efficiently than NOK-1 mAb”. Besides, the “recognition of simian CD95L” value with simian CD95L was “recognizes”. Further, the “recognition of human CD95L” value with human CD95L is “recognizes”. The “inhibition of neutrophil activation (calcium response)” value in assay [5] is given as “inhibit neutrophil activation (calcium response); also recorded: blocked the CD95-mediated Ca^2+ response”.

The values are drawn from US20250002596A1, “NEUTRALIZING ANTI-CD95L MONOCLONAL ANTIBODIES” (INSTITUT NATIONAL DE LA SANTÉ ET DE LA RECHERCHE MÉDICALE, priority 2021, published 2025).
